# From PMC7429351, “Comparison of ligand binding and conformational stability of human calmodulin with its homolog from the malaria parasite Plasmodium falciparum” (FASEB BioAdvances, 2020)
# Columns and labels:
# [1] = target: Phosphodiesterase I, 3',5'-cyclic-nucleotide-specific (PDE) (bovine) (UniProt P14100)
# [2] = target: Calcineurin (PPase-2B, CaN) (bovine)
# [3] = target: Myosin light chain kinase (MLCK), human, recombinant, GST-tagged (human) (UniProt Q15746)
# Myosin light chain kinase (MLCK), human, recombinant, GST-tagged (human), sequence (Q15746 whole entry): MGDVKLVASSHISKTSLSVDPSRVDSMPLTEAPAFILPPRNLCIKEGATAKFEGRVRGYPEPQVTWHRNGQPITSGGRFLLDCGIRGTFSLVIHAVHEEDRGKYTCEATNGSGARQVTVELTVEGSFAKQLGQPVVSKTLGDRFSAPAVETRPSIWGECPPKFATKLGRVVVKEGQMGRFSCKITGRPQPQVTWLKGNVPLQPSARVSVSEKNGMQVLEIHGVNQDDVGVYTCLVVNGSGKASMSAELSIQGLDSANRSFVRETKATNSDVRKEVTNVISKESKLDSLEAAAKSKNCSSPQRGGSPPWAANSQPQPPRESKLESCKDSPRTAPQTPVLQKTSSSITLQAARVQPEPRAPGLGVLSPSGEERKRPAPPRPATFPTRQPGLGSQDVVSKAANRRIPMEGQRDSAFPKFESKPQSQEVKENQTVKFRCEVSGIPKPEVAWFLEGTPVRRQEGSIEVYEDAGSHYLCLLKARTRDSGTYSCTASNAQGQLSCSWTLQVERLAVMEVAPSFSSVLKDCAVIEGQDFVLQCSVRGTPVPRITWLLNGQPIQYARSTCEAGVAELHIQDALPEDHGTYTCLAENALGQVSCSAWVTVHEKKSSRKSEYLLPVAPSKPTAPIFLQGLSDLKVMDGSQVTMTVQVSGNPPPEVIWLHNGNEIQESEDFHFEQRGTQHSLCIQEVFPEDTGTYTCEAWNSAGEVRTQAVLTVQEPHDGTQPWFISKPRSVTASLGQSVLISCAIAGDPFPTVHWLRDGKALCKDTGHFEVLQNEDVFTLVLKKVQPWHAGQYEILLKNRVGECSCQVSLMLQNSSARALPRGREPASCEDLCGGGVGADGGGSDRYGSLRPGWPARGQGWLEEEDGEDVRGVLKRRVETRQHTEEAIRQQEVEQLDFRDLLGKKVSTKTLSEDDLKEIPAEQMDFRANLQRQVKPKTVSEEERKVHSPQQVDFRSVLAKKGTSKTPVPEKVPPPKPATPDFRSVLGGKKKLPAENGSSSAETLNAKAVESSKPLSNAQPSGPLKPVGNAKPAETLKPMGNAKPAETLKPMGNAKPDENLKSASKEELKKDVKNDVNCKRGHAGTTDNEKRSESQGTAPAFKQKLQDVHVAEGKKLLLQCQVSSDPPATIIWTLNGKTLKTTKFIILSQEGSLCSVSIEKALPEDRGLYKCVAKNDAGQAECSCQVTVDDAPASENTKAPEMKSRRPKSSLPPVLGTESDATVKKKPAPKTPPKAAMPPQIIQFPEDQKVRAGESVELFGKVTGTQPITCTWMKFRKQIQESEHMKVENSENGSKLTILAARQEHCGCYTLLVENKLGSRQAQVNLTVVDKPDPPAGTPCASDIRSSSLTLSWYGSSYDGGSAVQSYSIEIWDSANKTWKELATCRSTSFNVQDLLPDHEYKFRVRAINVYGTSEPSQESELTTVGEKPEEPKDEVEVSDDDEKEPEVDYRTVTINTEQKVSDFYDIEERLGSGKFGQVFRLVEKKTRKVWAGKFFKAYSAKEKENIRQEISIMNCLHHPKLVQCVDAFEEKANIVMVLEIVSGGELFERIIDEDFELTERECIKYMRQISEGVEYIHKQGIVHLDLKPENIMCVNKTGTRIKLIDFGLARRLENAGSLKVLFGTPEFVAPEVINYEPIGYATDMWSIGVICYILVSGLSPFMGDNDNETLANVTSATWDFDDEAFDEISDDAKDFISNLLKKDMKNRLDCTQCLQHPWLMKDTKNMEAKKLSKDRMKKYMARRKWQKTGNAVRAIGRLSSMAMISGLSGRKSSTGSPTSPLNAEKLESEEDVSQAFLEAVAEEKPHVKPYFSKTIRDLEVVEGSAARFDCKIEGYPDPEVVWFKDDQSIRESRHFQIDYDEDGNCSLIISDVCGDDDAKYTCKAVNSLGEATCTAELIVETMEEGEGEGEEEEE
# Phosphodiesterase I, 3',5'-cyclic-nucleotide-specific (PDE) (bovine), sequence (P14100 whole entry): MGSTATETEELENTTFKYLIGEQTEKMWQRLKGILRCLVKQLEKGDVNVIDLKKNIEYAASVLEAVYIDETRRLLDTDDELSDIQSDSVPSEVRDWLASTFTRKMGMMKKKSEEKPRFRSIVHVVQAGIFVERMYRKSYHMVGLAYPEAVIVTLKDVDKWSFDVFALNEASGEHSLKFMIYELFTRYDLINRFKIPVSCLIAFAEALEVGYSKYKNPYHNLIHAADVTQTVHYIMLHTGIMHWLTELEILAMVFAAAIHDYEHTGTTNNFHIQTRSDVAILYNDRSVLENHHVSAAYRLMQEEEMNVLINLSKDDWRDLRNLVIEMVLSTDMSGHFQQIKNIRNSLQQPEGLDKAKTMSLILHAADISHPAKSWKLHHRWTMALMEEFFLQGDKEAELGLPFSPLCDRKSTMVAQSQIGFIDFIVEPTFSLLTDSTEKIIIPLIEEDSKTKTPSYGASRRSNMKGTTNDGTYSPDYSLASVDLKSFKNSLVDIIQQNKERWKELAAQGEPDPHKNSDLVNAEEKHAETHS
substance,measurement,setting,value
Human recombinant calmodulin (CaM) (from UniProt P0DP23 1-149) (natural protein),"activation of PDE activity (mant-cGMP hydrolysis, 25°C, 150 nmol/L CaM, 6.5 nmol/L PDE, 1 mmol/L CaCl2), fold over the basal activity",[1],2 fold
same,"activation of CaN phosphatase activity (PNPP dephosphorylation) by CaM, fold over the basal activity",[2],2.34 fold
same,"activation of CaN phosphatase activity (PNPP dephosphorylation, 28°C) against the CaM concentration, EC50",[2],0.67 nM
same,"activation of MLCK kinase activity (ADP-Glo luminescence, room temperature, 0.5 mmol/L CaCl2) against the CaM concentration, EC50",[3],5.6 nM
